Data on one substance can be found in patent publication US20050158807A1.

The assay addresses Fas receptor on cultured mouse thyroid follicular cells (mouse) (UniProt P25446). Description: cell-based or functional assay.
UniProt P25446, sequence (P25446 22-327): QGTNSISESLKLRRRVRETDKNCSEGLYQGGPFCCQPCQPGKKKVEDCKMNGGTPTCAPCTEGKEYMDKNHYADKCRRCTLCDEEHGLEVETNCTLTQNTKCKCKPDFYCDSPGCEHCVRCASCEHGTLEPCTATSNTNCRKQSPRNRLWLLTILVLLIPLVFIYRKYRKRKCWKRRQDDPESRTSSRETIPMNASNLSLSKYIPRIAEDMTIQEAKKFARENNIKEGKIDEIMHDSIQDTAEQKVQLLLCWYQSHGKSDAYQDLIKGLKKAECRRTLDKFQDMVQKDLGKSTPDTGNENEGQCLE

Substance “clone Jo2 anti-Fas antibody (Pharmingen)” yielded a percentage of proliferation increase of anti-Fas versus control cultures ([3H] thymidine), 48 h of 37%; a percentage of proliferation increase of anti-Fas versus control cultures ([3H] thymidine), 72 h of 49%; a percentage of proliferation increase of anti-Fas versus control cultures ([3H] thymidine), 96 h of 61%.
